Experiment: soluble on expression in E. coli; label from the status in PepcDB or PDB records

| Sequence | soluble on expression in E. coli |
| --- | --- |
| MDPVEAGDWIAGRPLQLVFLSGLNPVNKPAHNSIVNVFRNRTADKPPLHIRVVSGELDIPPKRETGSGKGILRREWPQKYLDKVPALIVVFIDLEWDHPSWEEKKTEAESKVASIRGSLRHGTKIALVLIQQKSTSISDNLAADRAHELCQACSLSSKQLFILPADNLLAPNTTNLQNFALKLELAFHELCQAFYQQRLKTIRSRNIPNNSPALVVRQQFKLAFLSELRQDTHTALRNYRLAYDQCRDTVEQWDGVDVFEWRSVVGLLNYKVQQGLLKTKNSVISTRGMCELCFLHSTALEAINQMRRHTTVFFSSSPGIYPTPHLASIELLLWKSKQCYQFAHLFERSVAGGLSALATLNPGTHLDQAASIYSAANTEIAALKRNAPQNVPYPSPDPLANSSSTVFFGQRPWRINHEGLATAEVEAAAVTAIIQRLVVNHEGVISLLSAALAQYQKYGCLRMKKKVMMEMANTCYANNEIQRALRFWGLVVKDNALPYSIRKDMMHRATWAAYAITSIQDYAVCCMQLMCPAYSEVLPSDCVKGLLDVLDGKPPGSPFPNDDISQEQLHTYQLQWQHVLQEHPAFVVQASKIAELFLETRVSFLDQQTVEQDSKVAVRVEIVSKIEQVIRLNDVSVHLKAKKFPPDANQTANDADCLIYDPIHLGSVEVSKSKPLQRVVLLDLKNAKQNWIVTVTKVTLDLGNAIRGNIEFDENALNRNCHVENIIGLEFLKIGVAKTSVKLESVEKVDCLIGEVTSTELTIRNTCKSSPIHGLQLDFKRKEQKHAEAAAVLFVEQDGTELKSEFSKSVCEQLGAGEMAKIPVMFSAQLVGDYVLQLELSYKISEDGILVTKSTMLEVGVTAKEPFTVTSTVMNMNGIPMTSILNNCDHILNASIQSAASIVISSVEFLMADVVTLCDTINGGSGKNLNDKVHSEEVICYSAVIRVLVKEDESETPLGRMSVEWRRAVPNSCPVRSVAPLCRIPVLACPISISSHIKTNPAIVRQPIEICFELKSHSKEAVEISTNFDLNDVFMFSGERKVTMTVLPGATRRVTVVVMALSAGRLNFPKISLKSPQISDQTLQQSLRTLPAAIFVLPKAKDLAPHP | not soluble |
| MSTPIIPWMGGKRRLADRLIPLFPPHECYVEVFAGGAALYFMRPQAAPVEVLNDINGDLVNLYRVVQNHLEEFVRQFKWALSSRQVFEWQKMTRPETLTDIQRAARFFYLQHHAFAGKVSGQTFGTATTGPAINLLRIEENLSAAWQRLSGTYVENLPWLECAERYDRPQTFHYMDPPYWQTAGYGVDYPFENYERMADFMRTCKGKVMVSINDHPDIRRVFEEFHFETVDIRYTSSNQRRGRTDVVGELVIMNWEP | not soluble |
| SSEAYFPVESGALGPEENFLSLDDILMSQEKLPVRVETPMPRLGAFFLERGAGSEPDHPLPQGTKLELPLWLAKGLFDHKRRILSVELPKMYQEGWRTVFSADANVVDLHKMGPHFYGFGSQLLHFDSPENADISQSLLKTFIGRFRRIMDSSQNSYNEDTSALVARLDETERGLFQIGQRSLNDFQSWEKGQASQITASSLVQNYKKRKFTNMED | soluble |
| MGSDKIHHHHHHMIKALYTSITGMNATQNALSVTSNNIANAQTVGYKKQKAMFDDLLYNNSIGAKGDDRYAGTNPKSIGNGVKMSGTVTDYTDGTITLTGGKTQAAMEGNGFFVVGDSKAGNMEFTRKGTFTISSDYYITNTEGQYVFAYPADPSTGNVDLSGIPGPLQVPMGSAIGGIRTSKGVVGGNIPADAKQITQELPVYDNAGNTWTMRVEFKQDGEHNYKYKVYMRNESKKETAFNEVNGAGGEVKFDAVGKPDPVNPEANIPFNGGTVKIDFSKLTNHPTEKTLAVTDVDGRAAATVKDCFIADGGYVMVKYSDGSMKAAGQLAVAMFPNEGGLMKTGNGNYTATNTTGILAMGVSGQNGAGKVRGSAQEGANVDLSVEFVDLMLYQRGFQGNAKVIKISDEVLNEVVNLIR | not soluble |
| GNSKSGALSKEILEELQLNTKFTEEELSSWYQSFLKECPSGRITRQEFQTIYSKFFPEADPKAYAQHVFRSFDANSDGTLDFKEYVIALHMTSAGKTNQKLEWAFSLYDVDGNGTISKNEVLEIVTAIFKMISPEDTKHLPEDENTPEKRAEKIWGFFGKKDDDKLTEKEFIEGTLANKEILRLIQFEPQKVKEKLKEKKL | soluble |
| MTEITGGTLVLVGADHPVAHLDVTAFEASVTHDVMAASVAGTGLGVSTATAAGLSHLVVDAGVAQPVQGARSVRIRGERGDLRHADAMTPVQVEALLRDGQALGAEASHDGLVCLGEVGVGNTTIATALACAMTGLGPDEAVGLGAGSDTAMVERKAEIIKAALTRTHTDPNDPERLLAALGGPEFAVLAGVCLGAAEAGSPVVLDGLATSVAALIATKFSPGLHGWLVASQASREQVHHIVLAELGLEALMELRMRAGEGVGACFGAQMILTGLQVRRTAARTCLEHHHHHH | not soluble |
| MSLTPATETVSPISQWYDMMTRMFPDQRLTFLNYGYLAQDSDFDWINDADLEQKCSVNLIRTLLGDSDLRGKKVLEIGSGRGGNCSYLARYTGAASVTGLDFCPAHIELCNRVHALPGLSFVGGDAMALPFADNEFDVVINIESSHCYPDLNTFGAEVQRVLKQDGRFFYADTMKGDNTSALSEPDSIGVDFFSNVLAQHQAMIEHARFKVEEHRDISDGVIRAFESQDGHLKHLLRSLVEEKKQQREPLPPEVWHAFDTMFHFFDDSGIKAYKNGHLAYKFWRLQKAAEGHHHHHH | not soluble |
| MAHHHHHHMLCHNVASKVSELLLNRMNCPFLQNVQVRNHKIIKPRNIIKLWKINKGDEVKVISGKDKGKIGEVLSCDKFRNMVKVKGCNLRKIYLDNKFVYIEKKIHYSNVQLIDDFLKTNTKVCIRYTDDNQVIRISKKSGIVIPWPSKTNKEDEFDDVEENPLDTPPQEALKKTYDYKADVKFMNILRQTVNKYNRELS | not soluble |
| GVSTAVAQDFTIAAKHAIAVEANTGKILYEKDATQPVEIASITKLITVYLVYEALENGSITLSTPVDISDYPYQLTTNSEASNIPMEARNYTVEELLEATLVSSANSAAIALAEKIAGSEKDFVDMMRAKLLEWGIQDATVVNTTGLNNETLGDNIYPGSKKDEENKLSAYDVAIVARNLIKKYPQVLEITKKPSSTFAGMTITSTNYMLEGMPAYRGGFDGLKTGTTDKAGESFVGTTVEKGMRVITVVLNADHQDNNPYARFTATSSLMDYISSTFTLRKIVQQGDAYQDSKAPVQDGKEDTVIAVAPEDIYLIERVGNQSSQSVQFTPDSKAIPAPLEAGTVVGHLTYEDKDLIGQGYITTERPSFEMVADKKIEK | soluble |
| GSVASVHASISGSSASSTSSTPEVKPLKSLLGDSAPTLHLNKGMAILFAVVARGTTILAKHAWCGGNFLEVTEQILAKIPSENNKLTYSHGNYLFHYICQDRIVYLCITDDDFERSRAFSFLNEVKKRFQTTYGSRAQTALPYAMNSEFSSVLAAQLKHHSENHHHHHH | soluble |
| PLAIVTSPEIKSPGDLKGKRLMLSEVNIDSANFTHMLQGFGLSMKDIQILSTSFNIHDFIDGKVDAYSIFLTNELFDLQRLGVRYNILDPSNYGVELYDENLFGAKEFVLKNPTLVKRFIDASNRGWQYALDHPEEIVDLILERYNTQ | not soluble |
| MTESEIHERFVDTYMHILKYVGDFVSVPTRPYKITFEAYTVMRMIATSEEPLTLVKIAKEQRVSRSAIARQINVLLDLKYIEQTTNTHDRRIKYLSLTPAGHKVEQEITTASEERFHQWVQVYGEKRASDTLRYINDAEQKATELGFSGFSGLHDKRGRHTEYSDPKTKN | not soluble |
| MSLAEPLTVSPELTANYAYFFDLDGTLAEIKPHPDQVVVPHKILQLLDRLAAHNAGALALISGRSMTELDALAKPFRFPLAGVHGAERRDISGKTHIVRLPEAVVREVEALLRSTLAALPGTELETKGMAFALHYRQAPEHEAALLALAQHVTQHWPQLALQPGKCVVEIKPKGTNKGEAIAAFMQEAPFTGRIPVFVGDDLTDEAGFGVVNHAGGISVKVGVGATQAAWRLESVPDVWRWLEQINYPQQEQQVMNNRRDGYESFSRSIEGHHHHHH | soluble |
| MAHHHHHHMSRLMPHYSKGKTAFLCVDLQEAFSKRIENFANCVFVANRLARLHEVVPENTKYIVTEHYPKGLGRIVPEITLPKTAHLIEKTRFSCVVPQVEELLEDVDNAVVFGIEGHACILQTVADLLDMNKRVFLPKDGLGSQKKTDFKAAIKLMSSWGPNCEITTSESILLQMTKDAMDPNFKRISKLLKEEPPIPL | soluble |
| MNDIWWQTYGEGNCHLVLLHGWGLNAEVWHCIREELGSHFTLHLVDLPGYGRSSGFGAMTLEEMTAQVAKNAPDQAIWLGWSLGGLVASQMALTHPERVQALVTVASSPCFSAREGWPGIKPEILGGFQQQLSDDFQRTVERFLALQTLGTETARQDARTLKSVVLAQPMPDVEVLNGGLEILKTVDLREALKNVNMPFLRLYGYLDGLVPRKIVPLLDTLWPHSTSQIMAKAAHAPFISHPAAFCQALMTLKSSL | not soluble |
| MTLDESCKILNIEESKGDLNMDKINNRFNYLFEVNDKEKGGSFYLQSKVYRAAERLKWELAQREK | soluble |
| SDIEAYFERIGYKNSVNKLDLATLTEVLQHQMRAVPFENLSMHCGEAMCLGLEATFDHIVRKKRGGWCLQVNHLLYWALTKMGFETTMLGGYVYITPVNKYSSEMVHLLVQVTISDRNYIVDSAYGSSYQMWEPLELTSGKDQPQVPAIFRLTEENGTWYLDQIRREQDVPNQEFVNSDLLEKSKYRKIYSFTLEPRTIEDFEYVNTYLQTSPASVFVSTSFCSLQTSEGVCCLIGSTLTSRRFSYKDNVDLVEFKSLTEEEIEDVLKTTFGISLEKKFVPKHGELVFTI | soluble |
| MSRAASLRAELTSLANAFEEERISSAERLDADLVRQAVEQAKPENLEQWKQVVHDATAKLQQFWEDSEQALIRETYALATSYLRESDDEVHRLQMTKKALEEQLETERRRSTRIEEQLAALQSRLLDSAAPAATTPADDARTQQEVLRSELQGFMQELVRNQRESLRVLQEELQRVREEASVREENLLRQIAHLKTELAVARTDNEVSSRQLRQLETSAGREEVQDELGPGTIWPPHLTPRRGHRRFQRHNRLEDAPAPPEF | not soluble |
| MQVSLNPEWLARNNDEHKIRRNDHRSPFQRDRARILHSAAFRRLQAKTQVHGTSLNDFHRTRLTHSLEAAQIGTGIVAQIKLKQPEFRELLPSDSLIDSLCLAHDIGHPPYGHGGEIALNYMMRDHGGFEGNAQTFRIVTSLEPYTEHHGMNLSRRTLLGLLKYPALLSATRAAIPPPAVAHQRQLKAKDWSPAKGIYDCDLASLDWVLEPLCESDRELLGQMRAEPSSPKEHRKTRFKSLDCSIMELADDIAYGVHDLEDAIVLGMVTRAQWQEAAAAQLAECGDPWFEEHIAELSEMLFSGKHYVRKDAIGGIVNALLTSISVKPVEAPFHNELLAFNAYIEPHMGNALEVLKHFVSQYVIQIPQVQRFEYKGQQLIMDLFEALSADPERLLPQATGEKWRKAQEQDEGMRVICDYIAAMTDAYAQRLHQQLFSAQSHY | not soluble |
| MNIQCKRVYDPAEQSDGYRILVDRLWPRGIKKTDLALDEWDKEITPSTELRKAFHGEVVDYATFREQYLAELAQHEQEGKRLADIAKKQPLTLLYSAKNTTQNHALVLADWLRSL | soluble |
| MNYQDVLDFWFAPDHTNFWFAKDSLFDDEIRTQFSTVHQQATQAELWSWRQTVEGRLAEIIVLDQFSRNLYRDQAQAFAQDSMALALAQEAITQQLDAQLSPEQRSFLYMPFMHSESKLIHEFALKLFQKLGNEINLSFEKKHKVIIDQFGRYPHRNAILGRQSTPEELEFLTQPNSHF | not soluble |

— the DeepSol protein solubility set
